According to publication PMC3779476 (Nature, 2013):

Molecular target: the molecule itself
Experiment: native gel or EMSA

B1: LamB (natural protein)
chain: VDFHGYARSGIGWTGSGGEQQCFQTTGAQSKYRLGNECETYAELKLGQEVWKEGDKSFYFDTNVAYSVAQQNDWEATDPAFREANVQGKNLIEWLPGSTIWAGKRFYQRHDVHMIDFYYWDISGPGAGLENIDVGFGKLSLAATRSSEAGGSSSFASNNIYDYTNETANDVFDVRLAQMEINPGGTLELGVDYGRANLRDNYRLVDGASKDGWLFTAEHTQSVLKGFNKFVVQYATDSMTSQGKGLSQGSGVAFDNEKFAYNINNNGHMLRILDHGAISMGDNWDMMYVGMYQDINWDNDNGTKWWTVGIRPMYKWTPIMSTVMEIGYDNVESQRTGDKNNQYKITLAQQWQAGDSIWSRPAIRVFATYAKWDEKWGYDYTGNADNNANFGKAVPADFNGGSFGRGDSDEWTFGAQMEIWW
Question: With B1 as the protein, how does the “stoichiometry N” value read?
Answer: 3
